Data taken from US20230218519A1, “FLUID GEL COMPOSITIONS” (The University of Birmingham, priority 2020, published 2023).

What was measured:
fibrin gel = assay: Matrix breakdown assay (fibrin gel); assay type: biochemical; details: fibrin gel 8.5 mg/ml, 60° C., images at various timepoints
Procedure: • Add proteinase K (10 mg) to PBS to make a total volume of 1 ml. • Mix well on a vortex mixer until dissolved.
• Add 0.9 ml of 3% v/v PEG-DA fluid gel prepared according to Example 5.3 to an Eppendorf. • To each gel add 0.1 ml of active in PBS. • Mix well using a vortex mixer. • Refrigerate for 24 hours before testing.
• 0.5 ml of fibrin gel (8.5 mg/ml) was formed in the wells of a 24 well plate. • 0.5 ml of PBS was added to each well. • 0.1 ml of fluid gel containing active was added to a trans-well insert and placed above the fibrin gel. • Samples were incubated at 60° C. to activate the proteinase K. • Images were taken at various timepoints and compared to (a) the control wells containing only fibrin gel+PBS; and (b) wells containing fibrin gel+proteinase k (no fluid gel carrier).

[1] = Release assay from PEG-DA fluid gel (trans-well, UV/Vis); assay type: physicochemical; details: 3% v/v PEG-DA fluid gel (Example 5.3, 500 rpm), into PBS at 37° C., 5 hrs
Procedure: • Active amounts: […] • Standard concentrations of active in PBS were prepared. • Standards were pipetted into a quartz cuvette (1 mm pathlength). • UV/Vis spectroscopy was used to measure absorbance between 200 and 700 nm wavelength. • Curves were plotted and used to determine standard curves which were used to determine concentrations. • 0.5 ml PBS was added to the well of a 24 well plate. • The PBS was incubated at 37° C. to equilibrate. • 0.1 ml of the fluid gel containing active was placed in a trans-well insert. • The trans-well insert was placed into a well containing PBS. • After a given time period the trans-well insert was removed and placed in a fresh well of PBS. • The release media was then removed and analysed using […] spectroscopy. Concentrations were derived from the standard curves and cumulative release plotted as a function of time.

B1: proteinase K only: extracellular matrix remodelling agent, a proteinase (protein, UniProt P06873 106-384, looked up)
Proteinase K: AAQTNAPWGLARISSTSPGTSTYYYDESAGQGSCVYVIDTGIEASHPEFEGRAQMVKTYYYSSRDGNGHGTHCAGTVGSRTYGVAKKTQLFGVKVLDDNGSGQYSTIIAGMDFVASDKNNRNCPKGVVASLSLGGGYSSSVNSAAARLQSSGVMVAVAAGNNNADARNYSPASEPSVCTVGASDRYDRRSSFSNYGSVLDIFGPGTSILSTWIGGSTRSISGTSMATPHVAGLAAYLMTLGKTTAASACRYIADTANKGDLSNIPFGTVNLLAYNNYQA
For B1, which “fibrin gel break down” value (fibrin gel) is on record?
The value was “faster”.

What about the “release of active agent from fluid gel” value [1] of the same molecule?
Its value is “able to release”.
